Test: Phase 1 clinical study of BA3011: safety (adverse events, DLT, MTD, RP2D)
Format: in vivo, human
Details: Phase 1
Source text: MTD evaluation will be based on the DLT-evaluable Population. The DLT-evaluable Population includes all patients enrolled in Phase 1 dose escalation who receive at least 1 full assigned dose of BA3011 and complete the safety follow-up through the DLT-evaluation period (defined as the time period from the first dose of BA3011 through 21 days post Dose 1) or experience any DLT during the DLT-evaluation period. Non-DLT-evaluable patients will be replaced. The safety evaluation will be based on the As-Treated Population. Adverse events (AEs) will be coded by Medical Dictionary for Regulatory Activities (MedDRA) and graded according to the NCI CTCAE v4.03, and the type, incidence, severity, and relationship to each IP will be summarized. If any associations of interest between AEs and baseline characteristics are observed, additional stratified results may be presented. All treatment-emergent AEs will be summarized by MedDRA system organ class and preferred term. Laboratory abnormalities with toxicity grades according to the NCI CTCAE will be summarized.
A DLT is defined as meeting 1 of the following criteria during the 21-day DLT evaluation period or a treatment-related toxicity of any grade requiring dose delay of 1 week or more between the first and second cycles: • Non-hematologic Toxicity • For non-hematologic toxicities, DLT will be defined as any National Cancer Institute (NCI) Common Terminology Criteria for Adverse Events (CTCAE) v4.03 (published 14 Jun. 2010) Grade 3 or greater toxicity at least possibly related to treatment, except for: • Grade 3 fatigue. • Grade 3 nausea and vomiting lasting less than 24 hours. • Grade 3 non-hematologic laboratory abnormalities that are asymptomatic and resolve to Grade 1 or baseline (if the patient entered the study with existing toxicity) within 14 days. • Grade 3 or 4 allergic or hypersensitivity reaction at first occurrence in the absence of prophylactic steroid that resolves in less than 6 hours with appropriate clinical intervention
• DLT for hematologic toxicity, using NCI CTCAE v4.03, will be defined as: • Grade 4 neutropenia lasting greater than 7 days. • Grade 3 or 4 febrile neutropenia. • Grade 4 platelet count (<25,000/mm3) at any time.
Study BA3011-001 was an ongoing, multi-center, open-label, Phase 1/2 first-in-human trial of BA3011.
In Phase 1 (NCT03425279), BA3011 was administered once (Q3W) or twice (2Q3W) every 3 weeks via intravenous (IV) infusion.

[1] = 0.3 mg/kg Q3W, 1 sarcoma patient
[2] = 1.2 mg/kg 2Q3W, 2 sarcoma patients
[3] = 1.8 mg/kg 2Q3W, 19 sarcoma patients
[4] = 1.8 mg/kg Q3W, 2 sarcoma patients
[5] = 2.4 mg/kg Q3W, 2 sarcoma patients
[6] = All TEAEs, All Grades, sarcoma patients

B1: Mecbotamab vedotin (conjugate, chains of the INN, looked up)
VH: EVQLVQSGAEVKKPGATVKISCKVSGYSFWGATMNWIRQPPGKGLEWIGLIKPSNGGTSYNQKFKGRVTISADKSISTAYLQWSSLKASDTAMYYCAHGHYESYEAMDYWGQGTLVTVSS
VL: DIQMTQSPSSLSASVGDRVTITCKASQDVVSAVAWYQQKPGQAPRLLIYWQDTRHTGVPSRFSGSGSGTEFTLTISSLQPDDFATYYCQEHFSPPLTFGQGTKVEIK
modifications: MC-vc-PAB-MMAE conjugate
Any TEAE, % of patients [1]: 100.0%
Any TEAE, no. of patients [1]: 1
Any related serious TEAE, no. of patients [1]: 0
Any serious TEAE, no. of patients [1]: 0
Related TEAE leading to treatment discontinuation, no. of patients [1]: 0
Related TEAEs with CTCAE grade 3 or 4, no. of patients [1]: 0
TEAE leading to treatment discontinuation, no. of patients [1]: 0
TEAE with CTCAE grade 3 or 4, no. of patients [1]: 0
TEAEs leading to death, no. of patients [1]: 0
Any TEAE, % of patients [2]: 100.0%
Any TEAE, no. of patients [2]: 2
Any related serious TEAE, no. of patients [2]: 0
Any serious TEAE, no. of patients [2]: 0
Related TEAE leading to treatment discontinuation, no. of patients [2]: 0
Related TEAEs with CTCAE grade 3 or 4, no. of patients [2]: 0
TEAE leading to treatment discontinuation, no. of patients [2]: 0
TEAE with CTCAE grade 3 or 4, % of patients [2]: 100.0%
TEAE with CTCAE grade 3 or 4, no. of patients [2]: 2
TEAEs leading to death, no. of patients [2]: 0
Any TEAE, % of patients [3]: (100.0%)
Any TEAE, no. of patients [3]: 19
Any related serious TEAE, % of patients [3]: (5.3%)
Any serious TEAE, % of patients [3]: (36.8%)
Any serious TEAE, no. of patients [3]: 7
Related TEAE leading to treatment discontinuation, % of patients [3]: (10.5%)
Related TEAEs with CTCAE grade 3 or 4, % of patients [3]: (57.9%)
Related TEAEs with CTCAE grade 3 or 4, no. of patients [3]: 11
TEAE leading to treatment discontinuation, % of patients [3]: (10.5%)
TEAE leading to treatment discontinuation, no. of patients [3]: 2
TEAE with CTCAE grade 3 or 4, % of patients [3]: (68.4%)
TEAE with CTCAE grade 3 or 4, no. of patients [3]: 13
TEAEs leading to death, no. of patients [3]: 0
Any related serious TEAE, no. of patients (1.8 mg/kg 2Q3W, 19 sarcoma patients, hepatic encephalopathy, CTCAE grade 2): 1
Related TEAE leading to treatment discontinuation, no. of patients (1.8 mg/kg 2Q3W, 19 sarcoma patients, neuropathy peripheral grade 2, fatigue grade 3): 2
Any TEAE, % of patients [4]: (100.0%)
Any TEAE, no. of patients [4]: 2
Any related serious TEAE, no. of patients [4]: 0
Any serious TEAE, % of patients [4]: (50.0%)
Any serious TEAE, no. of patients [4]: 1
Related TEAE leading to treatment discontinuation, no. of patients [4]: 0
Related TEAEs with CTCAE grade 3 or 4, no. of patients [4]: 0
TEAE leading to treatment discontinuation, no. of patients [4]: 0
TEAE with CTCAE grade 3 or 4, % of patients [4]: (50.0%)
TEAE with CTCAE grade 3 or 4, no. of patients [4]: 1
TEAEs leading to death, no. of patients [4]: 0
Any TEAE, % of patients [5]: (100.0%)
Any TEAE, no. of patients [5]: 2
Any related serious TEAE, no. of patients [5]: 0
Any serious TEAE, % of patients [5]: (50.0%)
Any serious TEAE, no. of patients [5]: 1
Related TEAE leading to treatment discontinuation, no. of patients [5]: 0
Related TEAEs with CTCAE grade 3 or 4, % of patients [5]: (50.0%)
Related TEAEs with CTCAE grade 3 or 4, no. of patients [5]: 1
TEAE leading to treatment discontinuation, no. of patients [5]: 0
TEAE with CTCAE grade 3 or 4, % of patients [5]: (50.0%)
TEAE with CTCAE grade 3 or 4, no. of patients [5]: 1
TEAEs leading to death, no. of patients [5]: 0
Alanine aminotransferase increased, % [6]: (46.2) %
Alopecia, % [6]: (23.9) %
Anemia, % [6]: (15.4) %
Arthralgia, % [6]: (23.9) %
Aspartate aminotransferase increased, % [6]: (42.3) %
Blood alkaline phosphatase increased, % [6]: (23.9) %
Blood bilirubin increased, % [6]: (3.8) %
Bone pain, % [6]: (26.9) %
Constipation, % [6]: (26.9) %
Decreased appetite, % [6]: (23.9) %
Diarrhea, % [6]: (26.9) %
Fatigue, % [6]: (61.5) %
Hypokalemia, % [6]: (15.4) %
Hyponatremia, % [6]: (11.5) %
Lymphocyte count decreased, % [6]: (7.7) %
Nausea, % [6]: (58.3) %
Neutrophil count decreased, % [6]: (26.9) %
Patients with at least one TEAE, % [6]: (100.0) %
Peripheral neuropathy, % [6]: (15.4) %

Source: patent publication US20250276075A1, “METHODS OF TREATING AXL-EXPRESSING CANCERS WITH ANTI-AXL ANTIBODIES, ANTIBODY FRAGMENTS AND THEIR IMMUNOCONJUGATES” (BIOATLA, INC., priority 2020, published 2025)
